Data on one substance can be found in paper PMC10653093.

One may read the EC50 as the concentration giving half of the maximal effect.

The test has as its target Recombinant human heterodimeric S100A8/A9 (human) (UniProt P05109). Description: ELISA.
UniProt P05109, sequence (P05109 whole entry, chain 1 of 2): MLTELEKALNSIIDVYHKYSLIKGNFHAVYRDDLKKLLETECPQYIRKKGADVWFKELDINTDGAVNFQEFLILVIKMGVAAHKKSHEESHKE
UniProt P05109, sequence (P06702 whole entry, chain 2 of 2, further chain): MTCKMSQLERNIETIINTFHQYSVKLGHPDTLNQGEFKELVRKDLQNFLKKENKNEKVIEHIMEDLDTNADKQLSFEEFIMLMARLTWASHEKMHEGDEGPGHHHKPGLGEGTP

As to “recombinant soluble GPIbα (His-17-Leu505) (domain or fragment)”, the 50% effective concentration (EC50) was 130 nM.
